Values joined by “and” are separate entries in the source; they are usually repeats but may differ in a detail not shown here. Identical values can stand only once. One block for each molecule: values may come before it.
What was measured:
[1] = target: KinAN-GFP (Bacillus subtilis); assay: cross-linking; cell extracts of B. subtilis lacking native kinA (LB, 10 μmol/L IPTG) incubated with or without bis-maleimidohexane (BMH, sulfhydryl-specific); SDS-PAGE (10%), immunoblot with anti-GFP antibodies; sizes from a regression line of mass standards
[2] = target: KinAN-GFP-his6 (Bacillus subtilis); assay: native gel or EMSA; blue native PAGE (4-16% gradient gel) of Ni-NTA eluates, immunoblot with anti-GFP antibodies; sizes from a regression line of NativeMark standards
[3] = target: KinA^ΔPAS-A-GFP (Bacillus subtilis); assay: cross-linking; cell extracts of B. subtilis lacking native kinA (LB, 10 μmol/L IPTG) incubated with or without bis-maleimidohexane (BMH, sulfhydryl-specific); SDS-PAGE (10%), immunoblot with anti-GFP antibodies; sizes from a regression line of mass standards
[4] = target: PAS-BC-GFP-his6 (Bacillus subtilis); assay: native gel or EMSA; blue native PAGE (4-16% gradient gel) of Ni-NTA eluates, immunoblot with anti-GFP antibodies; sizes from a regression line of NativeMark standards
[5] = target: the molecule itself; assay: cross-linking; cell extracts of B. subtilis lacking native kinA (LB, 10 μmol/L IPTG) incubated with or without bis-maleimidohexane (BMH, sulfhydryl-specific); SDS-PAGE (10%), immunoblot with anti-GFP antibodies; sizes from a regression line of mass standards

Molecule: KinAN-GFP-his6 (domain or fragment)
stoichiometry N [2]: 4 and 2

Molecule: KinA^ΔPAS-A-GFP (domain or fragment)
stoichiometry N [3]: 4

B1: full-length KinA-GFP (natural protein, Bacillus subtilis, UniProt P16497 1-606, looked up)
chain: MEQDTQHVKPLQTKTDIHAVLASNGRIIYISANSKLHLGYLQGEMIGSFLKTFLHEEDQFLVESYFYNEHHLMPCTFRFIKKDHTIVWVEAAVEIVTTRAERTEREIILKMKVLEEETGHQSLNCEKHEIEPASPESTTYITDDYERLVENLPSPLCISVKGKIVYVNSAMLSMLGAKSKDAIIGKSSYEFIEEEYHDIVKNRIIRMQKGMEVGMIEQTWKRLDGTPVHLEVKASPTVYKNQQAELLLLIDISSRKKFQTILQKSRERYQLLIQNSIDTIAVIHNGKWVFMNESGISLFEAATYEDLIGKNIYDQLHPCDHEDVKERIQNIAEQKTESEIVKQSWFTFQNRVIYTEMVCIPTTFFGEAAVQVILRDISERKQTEELMLKSEKLSIAGQLAAGIAHEIRNPLTAIKGFLQLMKPTMEGNEHYFDIVFSELSRIELILSELLMLAKPQQNAVKEYLNLKKLIGEVSALLETQANLNGIFIRTSYEKDSIYINGDQNQLKQVFINLIKNAVESMPDGGTVDIIITEDEHSVHVTVKDEGEGIPEKVLNRIGEPFLTTKEKGTGLGLMVTFNIIENHQGVIHVDSHPEKGTAFKISFPKK
notes: Sporulation kinase KinA, Bacillus subtilis (strains derived from PY79), full length; Tetramer by BMH cross-linking; also called MF3352; source: B. subtilis lacking the native kinA gene, IPTG-inducible promoter (10 μmol/L IPTG, LB), in cell extract
stoichiometry N [5]: 4

B2: KinA^ΔPAS-AB-GFP (domain or fragment, Bacillus subtilis, UniProt P16497 259-606, looked up)
chain: QTILQKSRERYQLLIQNSIDTIAVIHNGKWVFMNESGISLFEAATYEDLIGKNIYDQLHPCDHEDVKERIQNIAEQKTESEIVKQSWFTFQNRVIYTEMVCIPTTFFGEAAVQVILRDISERKQTEELMLKSEKLSIAGQLAAGIAHEIRNPLTAIKGFLQLMKPTMEGNEHYFDIVFSELSRIELILSELLMLAKPQQNAVKEYLNLKKLIGEVSALLETQANLNGIFIRTSYEKDSIYINGDQNQLKQVFINLIKNAVESMPDGGTVDIIITEDEHSVHVTVKDEGEGIPEKVLNRIGEPFLTTKEKGTGLGLMVTFNIIENHQGVIHVDSHPEKGTAFKISFPKK
notes: KinA of Bacillus subtilis without PAS-A and PAS-B; 'our autokinase-deficient PAS-AB mutant (aa 259-606)'; also called MF3356; source: B. subtilis lacking the native kinA gene, IPTG-inducible promoter (10 μmol/L IPTG, LB), in cell extract
stoichiometry N [5]: 2

Results, then the molecule that gave them:

stoichiometry N [1]: 4
Molecule: KinAN-GFP (domain or fragment)

stoichiometry N [4]: 4 and 2
Molecule: PAS-BC-GFP-his6 (domain or fragment)
